Literature values, collected in PMC3471675.
Like-named read-outs stand apart in the source and are kept apart here. One block for each substance: values may come before it.

Assays:
[1] = target: IL-2Rβ (Homo sapiens) (UniProt P14784)
[2] = target: IL-2Rβ (Homo sapiens) (UniProt P14784); remark: listed apart in the source
[3] = target: IL-4Rα (Homo sapiens) (UniProt P24394)
[4] = target: IL-7Rα (Homo sapiens) (UniProt P16871)
[5] = target: IL-7Rα (Homo sapiens) (UniProt P16871); remark: listed apart in the source
[6] = target: γc (Homo sapiens) (UniProt P31785)
[7] = target: IL-21Rα (Homo sapiens) (UniProt Q9HBE5)
Chain of UniProt Q9HBE5 (Q9HBE5 20-232): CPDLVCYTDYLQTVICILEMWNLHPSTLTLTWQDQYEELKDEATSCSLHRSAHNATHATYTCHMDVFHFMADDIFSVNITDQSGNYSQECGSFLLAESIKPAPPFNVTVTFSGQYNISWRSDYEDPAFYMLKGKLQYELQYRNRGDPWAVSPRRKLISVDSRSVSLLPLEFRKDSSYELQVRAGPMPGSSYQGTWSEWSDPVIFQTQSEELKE

Chain of UniProt P24394 (P24394 26-232): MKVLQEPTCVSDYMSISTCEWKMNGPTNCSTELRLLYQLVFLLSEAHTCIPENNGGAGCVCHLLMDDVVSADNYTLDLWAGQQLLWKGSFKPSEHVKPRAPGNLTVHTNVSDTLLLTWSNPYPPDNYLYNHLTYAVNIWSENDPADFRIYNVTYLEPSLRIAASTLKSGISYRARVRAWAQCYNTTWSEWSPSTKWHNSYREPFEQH
Chain of UniProt P31785 (P31785 23-262): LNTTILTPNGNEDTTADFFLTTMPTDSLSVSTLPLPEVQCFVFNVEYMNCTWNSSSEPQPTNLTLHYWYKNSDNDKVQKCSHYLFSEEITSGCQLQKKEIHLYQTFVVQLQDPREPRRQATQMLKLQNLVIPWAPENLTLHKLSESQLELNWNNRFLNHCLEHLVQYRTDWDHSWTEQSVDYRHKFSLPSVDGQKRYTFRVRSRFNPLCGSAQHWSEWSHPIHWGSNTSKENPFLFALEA

Substance: IL-2 (from UniProt P60568)
- Kd [1]: 530 nM

Substance: IL-2Rβ (from UniProt P14784)
- Kd [2]: 3000 nM

Substance: IL-4 (from UniProt P05112)
- Kd [3]: 0.15 nM

Substance: IL-7 (from UniProt P13232)
- Kd [4]: 59 nM

Results, then the substance that gave them:

- Kd [5]: 610000 nM
- Kd [6]: 3000 nM
Substance: IL-7Rα (from UniProt P16871)

- Kd [7]: 0.07 nM
Substance: IL-21 (from UniProt Q9HBE4)
